The test concerns the target T1, Human LILRB3 (human, UniProt O75022 24-631).
T1 construct: whole, on cells; Endogenous receptor on primary human PBMCs and whole blood cells, not a recombinant construct; also called CD85A; ILT5
The experiment in a line: flow cytometry; human PBMCs and fresh whole blood stained with 3A3 and gated on cell subsets. The procedure: LILRB3 surface expression was measured on various hematopoietic subsets in the form of two-dimensional flow cytometry (FCM) representations called quantile contour plots (probability plots). Peripheral blood mononuclear cells (PBMCs) from a healthy human donor were stained with the LILRB3 3A3 antibody as well as antibodies specific for the indicated cell subset. FIG. 1A plots depict LILRB3 expression by gated CD3+CD4+T cells, CD3+CD8+ T cells or CD11b+ monocytes. In FIG. 1B, fresh whole blood from a healthy human donor was stained as in FIG. 1A. Plots depict LILRB3 expression by gated CD3+CD4+ T cells, CD3+CD8+ T cells, CD11b+ monocytes or CD11b+ granulocytes. Percentages of gated cells and of LILRB3+ cells within the gated population are depicted inside the plots (first and second numbers, respectively). […] Specificity of the LILRB3 staining was determined by staining all of the above cell subsets with an IgG1 isotype control antibody. Data are representative of several independent experiments utilizing different human blood samples.
(A flow cytometer gives signals particle by particle.)

T1 sequence (O75022 24-631): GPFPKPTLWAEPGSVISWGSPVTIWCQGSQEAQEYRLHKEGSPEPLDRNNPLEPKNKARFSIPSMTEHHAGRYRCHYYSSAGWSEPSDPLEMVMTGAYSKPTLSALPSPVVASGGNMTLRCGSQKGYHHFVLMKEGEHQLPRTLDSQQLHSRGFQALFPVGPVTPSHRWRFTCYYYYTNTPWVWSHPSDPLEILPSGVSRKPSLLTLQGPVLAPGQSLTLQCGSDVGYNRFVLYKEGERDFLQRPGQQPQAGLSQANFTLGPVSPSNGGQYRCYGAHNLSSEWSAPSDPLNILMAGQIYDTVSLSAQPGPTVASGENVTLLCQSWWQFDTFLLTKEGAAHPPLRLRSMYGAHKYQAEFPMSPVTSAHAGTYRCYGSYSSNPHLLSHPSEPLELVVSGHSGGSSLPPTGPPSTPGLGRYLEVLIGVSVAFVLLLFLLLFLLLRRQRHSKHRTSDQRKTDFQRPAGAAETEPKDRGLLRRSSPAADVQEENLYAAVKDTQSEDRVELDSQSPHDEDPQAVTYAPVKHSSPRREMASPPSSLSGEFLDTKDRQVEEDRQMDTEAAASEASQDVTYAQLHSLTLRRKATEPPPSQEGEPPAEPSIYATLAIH

B1: LILRB3 3A3 antibody (antibody, V domains shown)
VH: QVQLQQSRTELMKPGASVKLSCKATGYTFTGYWIEWVKQRPGHGLEWIGEILPGSTNINYNERFKGKATITADTSSNTAYMQLSSLTTEDSAIYYCARWASVVVGDYWGQGATLTVSS
VL: QIVLTQSPAIMSASLGERVTMTCTASSSVSSSYLHWYQQKPGSSPKLWIYSTSNLASGVPARFSGSGSGTSYSLTISSMEAEDAATYYCHQYHRSPPTFGGGTKLEIKR
notes: the entries also seem to hold an N-terminal leader and part of the constant region
As for B1, the binding result is recorded as “binds”.

Source of the values: patent publication US20220089723A1 (UNIVERSITY HEALTH NETWORK, published 2022).
